In publication PMC3642092 one finds Kd and stoichiometry N data, which are given here for one molecule.

In this assay the target is F-actin (filamentous rabbit skeletal muscle actin) (rabbit), P68135. Description: co-sedimentation. The conditions noted are these: remark: other sources report otherwise.

B1: utrophin actin binding domain, utrophin residues 1-261 (UTR261), wildtype, P46939 1-261 (domain or fragment)
chain: MAKYGEHEASPDNGQNEFSDIIKSRSDEHNDVQKKTFTKWINARFSKSGKPPINDMFTDLKDGRKLLDLLEGLTGTSLPKERGSTRVHALNNVNRVLQVLHQNNVELVNIGGTDIVDGNHKLTLGLLWSIILHWQVKDVMKDVMSDLQQTNSEKILLSWVRQTTRPYSQVNVLNFTTSWTDGLAFNAVLHRHKPDLFSWDKVVKMSPIERLEHAFSKAQTYLGIEKLLDPEDVAVQLPDKKSIIMYLTSLFEVLPQQVTID
The term Kd denotes the equilibrium constant for the complex coming apart. High values mean a looser complex, low ones a tighter complex. As a reminder, the stoichiometry N is a count of units in the complex or per binding partner. The molecule B1 had a Kd of 19.2 µM and a stoichiometry N of 1.
